# Assay results published in patent US20200030378A1.
# B1: w876 clonotype 13 TCR (TCR)
# TCR alpha: CVVTDTSGGGADGLTF
# TCR beta: CASSLAGLAGTDTQYF
# B2: w876 clonotype 14 TCR (TCR)
# TCR alpha: CVVPSAGKSTF
# TCR beta: CASSEFAGQETQYF
# B3: w830 clonotype 3 TCR (TCR)
# TCR alpha: CAYPSTDKLIF
# TCR beta: CASSILGASNQPQHF
# B4: w876 clonotype 8 TCR (TCR)
# TCR alpha: CVVYASKIIF
# TCR beta: CASSDTPDLNTEAFF
# Target: MCPyV KLL epitope presented by HLA-A*02:01 on cells (human; Merkel cell polyomavirus), A*02:0
# Assay: cell-based or functional assay
row,Binder,"EC50 (ng/uL DNA), IFN-γ secretion, COS-7 + HLA-A*02:01 + tLTAg plasmid [ng/µL DNA]"
1,B1,3.9
2,B2,5.4
3,B3,270
4,B4,4.2
